Reference: FireProtDB (doi:10.1021/bi00173a036)

Details: Bos taurus, Thermal, DSC, reversible: yes, whole UniProt chain shown

B1: Alpha-lactalbumin wild type, P00711 (protein)
chain: MMSFVSLLLVGILFHATQAEQLTKCEVFRELKDLKGYGGVSLPEWVCTTFHTSGYDTQAIVQNNDSTEYGLFQINNKIWCKDDQNPHSSNICNISCDKFLDDDLTDDIMCVKKILDKVGINYWLAHKALCSEKLDQWLCEKL
With B1 the “heat capacity change of unfolding” value (pH 3, 44.3 °C, acetate 10 mM) was 1.3 kcal/mol/K, the “unfolding enthalpy (calorimetric)” value (pH 3, 44.3 °C, acetate 10 mM) was 25.6 kcal/mol and the “heat capacity change of unfolding” value (pH 3.2, 29.8 °C, acetate 10 mM) was 1.5 kcal/mol/K. For the same protein, the “unfolding enthalpy (calorimetric)” value (pH 3.2, 29.8 °C, acetate 10 mM) was 21.4 kcal/mol, the Tm (pH 3.2, acetate 10 mM) was 29.8 °C and the “heat capacity change of unfolding” value (pH 3.2, acetate 10 mM) was 0.92 kcal/mol/K. The “unfolding enthalpy (calorimetric)” value (pH 3.2, acetate 10 mM) was 36.1 kcal/mol, the “unfolding enthalpy (van 't Hoff)” value (pH 3.2, acetate 10 mM) was 43.5 kcal/mol and the “heat capacity change of unfolding” value (pH 3.5, 41 °C, acetate 10 mM) was 1.6 kcal/mol/K. For the same protein, the “unfolding enthalpy (calorimetric)” value (pH 3.5, 41 °C, acetate 10 mM) was 13.1 kcal/mol, the Tm (pH 3.5, acetate 10 mM) was 41 °C and the “heat capacity change of unfolding” value (pH 3.5, acetate 10 mM) was 1.19 kcal/mol/K. The “unfolding enthalpy (calorimetric)” value (pH 3.5, acetate 10 mM) was 47.8 kcal/mol, the “unfolding enthalpy (van 't Hoff)” value (pH 3.5, acetate 10 mM) was 51.4 kcal/mol and the “heat capacity change of unfolding” value (pH 4.2, 57 °C, acetate 10 mM) was 1.7 kcal/mol/K. The “unfolding enthalpy (calorimetric)” value (pH 4.2, 57 °C, acetate 10 mM) was 2.72 kcal/mol, the Tm (pH 4.2, acetate 10 mM) was 57 °C and the “heat capacity change of unfolding” value (pH 4.2, acetate 10 mM) was 1.61 kcal/mol/K. The “unfolding enthalpy (calorimetric)” value (pH 4.2, acetate 10 mM) was 64.8 kcal/mol, the “unfolding enthalpy (van 't Hoff)” value (pH 4.2, acetate 10 mM) was 59.8 kcal/mol and the Tm (pH 8, Tris-HCl 5 mM) was 64.3 °C. For the same protein, the “heat capacity change of unfolding” value (pH 8, Tris-HCl 5 mM) was 1.7 kcal/mol/K, the “unfolding enthalpy (calorimetric)” value (pH 8, Tris-HCl 5 mM) was 70.6 kcal/mol and the “unfolding enthalpy (van 't Hoff)” value (pH 8, Tris-HCl 5 mM) was 69.1 kcal/mol.
